{
  "source": "paper PMC7717906",
  "about": "(eLife, 2020)",
  "target": "the molecule itself",
  "test": "native gel or EMSA",
  "data": [
    {"protein": "MoOsm1-GFP (enzyme) MAEFVRAQIFGTTFEITSRYSDLQPVGMGAFGLVCSARDQLTNQNVAIKKIMKPFSTPVLAKRTYRELKLLKHLKHENVISLSDIFISPLEDIYFVTELLGTDLHRLLTSRPLEKQFIQYFLYQIMRGLKYVHSAGVVHRDLKPSNILVNENCDLKICDFGLARIQDPQMTGYVSTRYYRAPEIMLTWQKYDVEVDIWSAGCIFAEMLEGKPLFPGKDHVNQFSIITELLGTPPDDVINTIASENTLRFVKSLPKRERQPLKNKFKNADPSAIDLLERMLVFDPKKRITATEALAHEYLTPYHDPTDEPIAEEKFDWSFNDADLPVDTWKIMMYSEILDYHNAEAGMQQMDDQFTGQ", "values": [
      {"measurement": "stoichiometry N", "value": 2}
    ]}
  ]
}
